Patent US20110104788A1
Read-outs that look alike come from different tables or passages of the source.

Assays:
[1] = biological target: human coagulation factor X (FX), full-length zymogen (human) (UniProt P00742)
[2] = biological target: mouse coagulation factor X (mouse) (UniProt O88947); assay: SPR (Biacore T100); mouse FX immobilised on CM5 chip, inhibitor injected; heterogeneous ligand model
[3] = biological target: human coagulation factor X (FX), full-length zymogen (human) (UniProt P00742); assay: SPR (Biacore T100); human FX immobilised on CM5 chip, inhibitor injected; heterogeneous ligand model

human coagulation factor X (FX), full-length zymogen (human), sequence (P00742 41-488 limits assumed): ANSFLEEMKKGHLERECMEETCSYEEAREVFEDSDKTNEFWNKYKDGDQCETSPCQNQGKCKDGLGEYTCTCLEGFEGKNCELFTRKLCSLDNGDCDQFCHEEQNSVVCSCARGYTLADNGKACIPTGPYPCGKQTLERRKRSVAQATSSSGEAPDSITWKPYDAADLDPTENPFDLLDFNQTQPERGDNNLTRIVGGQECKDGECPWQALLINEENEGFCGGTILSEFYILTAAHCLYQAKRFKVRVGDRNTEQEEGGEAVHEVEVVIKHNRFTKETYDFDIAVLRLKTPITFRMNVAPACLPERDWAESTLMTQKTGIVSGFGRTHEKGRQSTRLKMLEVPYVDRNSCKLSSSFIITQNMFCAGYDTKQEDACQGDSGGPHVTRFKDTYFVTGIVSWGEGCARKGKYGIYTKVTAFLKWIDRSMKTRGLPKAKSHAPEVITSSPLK
Ixolaris, 12 kDa two-Kunitz domain protein isolated from tick salivary gland, sequence (Q964Q0 27-165 limits assumed): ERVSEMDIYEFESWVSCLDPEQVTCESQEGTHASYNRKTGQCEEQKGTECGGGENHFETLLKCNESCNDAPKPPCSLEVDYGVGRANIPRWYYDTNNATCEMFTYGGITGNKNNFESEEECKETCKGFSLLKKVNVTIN
mouse coagulation factor X (mouse), sequence (O88947 41-481 limits assumed): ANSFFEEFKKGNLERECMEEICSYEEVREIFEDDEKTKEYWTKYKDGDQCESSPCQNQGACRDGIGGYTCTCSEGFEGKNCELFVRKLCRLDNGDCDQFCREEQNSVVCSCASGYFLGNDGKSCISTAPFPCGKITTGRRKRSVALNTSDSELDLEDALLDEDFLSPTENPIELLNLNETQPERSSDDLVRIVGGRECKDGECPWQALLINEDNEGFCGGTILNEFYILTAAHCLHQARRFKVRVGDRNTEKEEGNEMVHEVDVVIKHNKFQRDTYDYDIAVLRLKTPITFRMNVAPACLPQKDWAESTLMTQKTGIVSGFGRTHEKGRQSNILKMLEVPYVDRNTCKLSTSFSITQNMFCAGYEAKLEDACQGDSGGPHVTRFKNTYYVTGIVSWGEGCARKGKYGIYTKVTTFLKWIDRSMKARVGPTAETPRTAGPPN

| Substance | Kd [1] | koff [1] | kon [1] | Kd [2] | koff [2] | kon [2] | Kd [3] | koff [3] | kon [3] |
| --- | --- | --- | --- | --- | --- | --- | --- | --- | --- |
| Ixolaris, 12 kDa two-Kunitz domain protein isolated from tick salivary gland (from UniProt Q964Q0 27-165) (other; other documents disagree on this pair) | 1.3 nM | 0.000175 s⁻¹ | 135000 M⁻¹ s⁻¹ | – | – | – | – | – | – |
| nematode anticoagulant peptide-2 (NAPc2) | – | – | – | 17 nM | 0.31 s⁻¹ | 1.8e+07 M⁻¹ s⁻¹ | 0.0728 nM | 0.000623 s⁻¹ | 8.6e+06 M⁻¹ s⁻¹ |
